From patent US20090181003A1, “Regulation of S6 Kinsase Protein Activity and Related Methods” (priority 2005, published 2009)

Columns and labels:
[1] = test system: recombinant S6K1; assay: In vitro acetylation with 14C labelled acetyl coenzyme A, S6K1; assay type: biochemical; details: 1 μg recombinant S6K1, HAT buffer with 14C AcCoA
Description: (§1) In FIG. 2A, recombinant S6 kinases were acetylated in vitro using the purified acetyltransferase domain of p300 or full length PCAF and ^14C-labelled acetyl CoA. Proteins were resolved by SDS-PAGE and acetylated proteins were analysed by phosphorimaging (Bio-rad). In FIG. 2B, recombinant S6K2 or GST were subject to in vitro acetylation reactions with p300 and 14C AcCoA. Recombinant PKB/Akt, PKCa, PDK1 and PI3K (p85a/p110a) were purified using baculovirus expression system. In vitro acetylation assay was carried out as previously described. In FIG. 2D, HEK 293 cells were transfected with S6 kinases in the absence or presence of Gal4-p300 as shown. Cells were treated with medium containing either solvent control or TSA to a final concentration of 660 nM for twelve hours prior to harvesting. Recombinant S6 kinases were immunoprecipitated using the EE-antibody and acetylated S6 kinase was detected by western blotting with polyclonal acetylated lysine antibodies (Upstate). The level of immunoprecipitated S6K1 and S6K2 was analysed by reprobing the membranes with specific antibodies. The expression of Gal4-p300 was tested in total lysates using anti-Gal4 antibodies.
(§2) Since S6Ks can interact with a region within, or adjacent to the acetyltransferase domain of p300 we hypothesized that they may in fact be targeted by its enzymatic activity. […] We detected weak, but reproducible acetylation of PKCa.

[2] = target: T1, S6K2 (Homo sapiens, UniProt Q9UBS0); assay: In vitro GST pulldown of p300 GST-fusion fragments with recombinant S6K2; assay type: binding; details: GST fusion proteins on glutathione beads, highly purified recombinant S6K2
T1 construct: made in house; GST-p300 fragments: bacteria
T1 sequence (Q9UBS0 with tags, fused parts or gaps A420V): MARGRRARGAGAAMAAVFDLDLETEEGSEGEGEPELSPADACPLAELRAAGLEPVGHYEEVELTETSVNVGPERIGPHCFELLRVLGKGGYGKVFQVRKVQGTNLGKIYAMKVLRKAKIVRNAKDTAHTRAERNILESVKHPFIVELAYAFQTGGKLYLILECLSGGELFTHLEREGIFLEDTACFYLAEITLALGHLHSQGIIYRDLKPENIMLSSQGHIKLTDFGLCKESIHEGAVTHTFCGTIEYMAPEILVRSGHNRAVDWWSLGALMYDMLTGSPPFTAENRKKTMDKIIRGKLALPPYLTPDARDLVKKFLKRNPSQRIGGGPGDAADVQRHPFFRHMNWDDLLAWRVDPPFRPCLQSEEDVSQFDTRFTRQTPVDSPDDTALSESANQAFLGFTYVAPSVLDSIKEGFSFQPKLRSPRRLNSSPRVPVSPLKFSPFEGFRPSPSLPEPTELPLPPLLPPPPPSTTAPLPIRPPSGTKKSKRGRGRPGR
Source text: In FIG. 1A, S6K1 and S6K2 were immunoprecipitated from MCF-7 cells using polyclonal antibodies or pre-immune serum control. Co-immunoprecipitated p300 was detected by western blotting with specific antibody. In FIG. 1B, 293 cells were cotransfected with either EE-S6K1 and Gal4-p300 or empty vector and Gal4-p300. S6K1 was immunoprecipitated using anti-EE antibody and associated p300 was detected by western blotting with anti-Gal4 antibody. Input: approximately ten percent of soluble lysate. In FIG. 1C, NIH-3T3 cells were transfected with empty vector or EE-S6K2. Anti-EE immunoprecipitates were subjected to western blotting with anti-p300 antibody. Input: approximately one percent of soluble lysate. […] Endogenous S6K1 and S6K2 were immunoprecipitated from MCF-7 cells using polyclonal antibodies. Associated P/CAF was detected by western blotting with polyclonal antibodies (Upstate). In FIG. 1E, the full length p300 was used to produce several GST-fusion fragments as shown (Hasan et al. (2001) Mol. Cell. 7, 1221-1231). Expressed fusion proteins were coupled to glutathione beads and used in an in vitro GST pulldown assay with recombinant S6K2. After extensive washing, bound S6K2 was detected by western blotting. […]

[3] = test system: recombinant S6K2; assay: In vitro acetylation with 14C labelled acetyl coenzyme A, S6K2; assay type: biochemical; details: 1 μg recombinant S6K2, HAT buffer with 14C AcCoA
Description: as §1, §2

acetylation of S6K1 (14C acetyl incorporation) [1]: acetyl groups were indeed incorporated | binding of S6K2 to p300 domains [2]: selective binding | acetylation of S6K2 (14C acetyl incorporation) [3]: acetyl groups were indeed incorporated
B1: p300 domain 4: active domain of p300 acetyltransferase, amino acid 1,459 to 1,892 (SEQ ID NO: 6), contains part of the acetyltransferase domain (protein, listed as Homo sapiens)
chain: KPKRLQEWYKKMLDKAVSERIVHDYKDIFKQATEDRLTSAKELPYFEGDFWPNVLEESIKELEQEEEERKREENTSNESTDVTKGDSKNAKKKNNKKTSKNKSSLSRGNKKKPGMPNVSNDLSQKLYATMEKHKEVFFVIRLIAGPAANSLPPIVDPDPLIPCDLMDGRDAFLTLARDKHLEFSSLRRAQWSTMCMLVELHTQSQDRFVYTCNECKHHVETRWHCTVCEDYDLCITCYNTKNHDHKMEKLGLGLDDESNNQQAAATQSPGDSRRLSIQRCIQSLVHACQCRNANCSLPSCQKMKRVVQHTKGCKRKTNGGCPICKQLIALCCYHAKHCQENKCPVPFCLNIKQKLRQQQLQHRLQQAQMLRRRMASMQRTGVVGQQQGLPSPTPATPTTPTGQQPTTPQTPQPTSQPQPTPPNSMPPYLPRTQA
modifications: GST fusion partner
